Results published in US20090111104A1, “Method for Monitoring Hydrolytic Activity” (Fluorotechnics Pty Limited, priority 2005, published 2009).

Legend:
BSA [1] = target: T1, BSA (Bos taurus, UniProt P02769); assay: Sub-sampled BSA tryptic digest visualised by SDS-PAGE (Deep Purple stain); assay type: biochemical, bovine
T1 construct: purchased Sigma-Aldrich A3059
Experimental: A.3.4 Visualization of Trypsin Digests in SDS-PAGE • 1 The reduced and denatured BSA sample from 3.2 above was diluted 10-fold in 50 mM bicine buffer (25 μL+225 μL bicine buffer). BSA molar concentration was calculated to be approx. 4 μM. • 2 One hundred microliter of the sample (step 1) was added to a 1.5 mL microtube. Controls included a bicine-based digestion buffer and an undigested BSA sample (no trypsin). • 3 Epicocconone stock solution was diluted 100-fold in 50 mM bicine. One hundred microliter of diluted epicocconone solution was added to each corresponding well. The final concentration was 12 μM. […] At each sampling point, 15 μL of the samples were taken out, immediately mixed with 15 μL of a protein gel loading buffer (2×), denatured for 5 min at 85° C., and stored at −80° C. • 6 The sub-samples collected as described above were run by SDS-PAGE (Nupage, 12% BT gel), and gels were stained with Deep Purple for visualization. • 7 The Deep Purple-stained gels were imaged by Typhoon scanner (Ex:Em=532:560 LP; 440 PMT). • 8 All the gel lanes showing digested (FIG. 12A) and undigested (FIG. 12B) protein samples were equally gated, and the fluorescent intensity was measured by ImageQuant (v 5.2) software.
The results from the subsampled reaction was similarly analysed but without the term associated with degradation of the signal with time as this is not relevant in gels. […]

BSA [2] = target: T1, BSA; assay: Tryptic digestion without dye, sub-sampled and quenched with protease inhibitors, then read with epicocconone (Example 8); assay type: biochemical, bovine; settings: no dye during digestion; sub-sampling and quenching with protease inhibitors
Experimental: 1. The trypsin inhibitors, leupeptin and trypsin-inhibitor (soybean) were prepared at a concentration of 1 mM in RO water and 0.48 mg/mL in RO water, respectively. 2. The protein samples were prepared as previously described in Example 6. The reduced and alkylated protein samples were diluted 1:10 in 100 mM bicine buffer (pH 8.4-5). 3. Trypsin (4.62 μg) was added to each protein sample (231 μg/300 μL) at a ratio of 1:50 and the samples were incubated at 37° C. 4. Sub-samples were collected for inhibition of trypsin activity either by leupeptin or by trypsin inhibitor (soybean). • a. Forty-five microlitres of the tryptic digests were sub-sampled at 0, 10, 20, 30, 60, […], 90, and 120 minutes and immediately added to 1.5 mL tubes containing 5 μL of 1 mM leupeptin. The sub-samples treated with leupeptin inhibitor were left at room temperature until fluorescence was read. • b. […] The sub-samples treated with soybean trypsin inhibitor were left at room temperature until fluorescence was read. […] Fluorescence of the sub-samples was read at Ex/Em=540-10/630-10 nm with 10 flashes. […] The fluorescence value was normalised by subtracting basal fluorescence of corresponding controls from the raw fluorescence of the sub-samples. […]

T1 sequence (P02769 25-607): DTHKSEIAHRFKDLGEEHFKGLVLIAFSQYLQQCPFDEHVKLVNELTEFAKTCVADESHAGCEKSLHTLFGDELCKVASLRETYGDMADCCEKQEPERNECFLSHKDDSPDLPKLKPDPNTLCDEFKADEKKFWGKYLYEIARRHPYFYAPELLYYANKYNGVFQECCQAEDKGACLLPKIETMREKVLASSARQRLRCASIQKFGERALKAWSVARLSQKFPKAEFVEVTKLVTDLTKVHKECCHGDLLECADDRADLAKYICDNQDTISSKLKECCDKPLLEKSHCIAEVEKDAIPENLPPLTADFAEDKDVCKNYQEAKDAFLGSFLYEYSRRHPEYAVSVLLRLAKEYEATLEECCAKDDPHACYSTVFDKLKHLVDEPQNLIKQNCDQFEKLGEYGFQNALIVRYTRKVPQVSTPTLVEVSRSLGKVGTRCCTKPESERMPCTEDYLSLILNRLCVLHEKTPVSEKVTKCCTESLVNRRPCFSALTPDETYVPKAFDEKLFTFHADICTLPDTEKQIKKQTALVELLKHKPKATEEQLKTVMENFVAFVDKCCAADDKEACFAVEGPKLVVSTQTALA

time for digestion to reach completion (BSA [1]; SDS-PAGE, bicine and carbonate (NH4HCO3) digestion buffers): 0.5 to 1 h
apparent first order rate constant (BSA [1]; sub-sampled reaction, gel fluorescence intensity, 0-128 min): 0.3136 min⁻¹
pseudo-first order rate constant for digestion of BSA (BSA [2]): 0.3 min⁻¹
B1: trypsin: Proteomics grade trypsin protease, Sigma-Aldrich T6567 (protein, UniProt P00761 9-231, looked up)
Trypsin: IVGGYTCAANSIPYQVSLNSGSHFCGGSLINSQWVVSAAHCYKSRIQVRLGEHNIDVLEGNEQFINAAKIITHPNFNGNTLDNDIMLIKLSSPATLNSRVATVSLPRSCAAAGTECLISGWGNTKSSGSSYPSLLQCLKAPVLSDSSCKSSYPGQITGNMICVGFLEGGKDSCQGDSGGPVVCNGQLQGIVSWGYGCAQKNKPGVYTKVCNYVNWIQQTIAAN
